In test [1] the target is T1, His-PP1γ (UniProt P36873 1-323).
T1 construct: PP1γ, catalytic subunit of protein phosphatase 1, gamma isoform; D1:p17 gives a molecular weight of 36965 Da for PP1; also called PP1g
As to the kind of experiment: ITC; peptide (approximately 450 µM, syringe) titrated into PP1γ (~35 µM, cell); 25°C; 50 mM sodium phosphate, 150 mM NaCl, 0.5 mM TCEP, pH 7.5; single-site model. As to conditions: both partners purified. A general note: In ITC the heat of successive injections is recorded.
T1 sequence (P36873 whole entry, canonical isoform): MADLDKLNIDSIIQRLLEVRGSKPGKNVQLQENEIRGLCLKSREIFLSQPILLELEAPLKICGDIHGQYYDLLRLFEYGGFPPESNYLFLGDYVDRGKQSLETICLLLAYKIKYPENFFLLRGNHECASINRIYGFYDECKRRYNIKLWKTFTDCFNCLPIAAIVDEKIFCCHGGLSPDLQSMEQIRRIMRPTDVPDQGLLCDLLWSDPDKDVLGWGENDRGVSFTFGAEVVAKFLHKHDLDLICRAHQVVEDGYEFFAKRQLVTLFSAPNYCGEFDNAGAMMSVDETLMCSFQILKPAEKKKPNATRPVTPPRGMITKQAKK

The target in test [2] is His-PP1γ (UniProt P36873 1-323). The test is described as above. As to conditions: both partners purified.
Target sequence in this assay (P36873 whole entry, canonical isoform): as above

Non-standard residues stand in square brackets, D forms with d. No end group written: not given here. pS = N[C@@H](COP(=O)(O)O)C(=O)O

For orientation: Kd means the equilibrium constant for the complex coming apart. A low value points to a tighter complex.

B1: Sororin 76-96 peptide PRRSPRISFFLEKENEPPGREW (peptide)
peptide: PRRSPRISFFLEKENEPPGREW
notes: Sororin (CDCA5) 76-96 by the label; also called CDCA5; source: synthetic peptide, bought: Peptide 2.0 Inc
For B1, binding with His-PP1γ [1] was characterised by a dissociation constant (Kd) of 2530 ± 110 nM.

B2: Nipp1 197-209 peptide AKNSRVTFSEDDEIW (peptide)
peptide: AKNSRVTFSEDDEIW
On to B2, for which the Kd with His-PP1γ [1] worked out at 190 ± 10 nM.

B3: Sororin 73-91 pS83 peptide RRSPRI(pS)FFLEKENEW (peptide)
chain: RRSPRI[pS]FFLEKENEW
Molecule B3 registered a Kd with His-PP1γ [2] of 1360 ± 10 nM.

B4: KNL1 1441-1455 peptide KLNSKRVSFKLPKDQW (peptide)
peptide: KLNSKRVSFKLPKDQW
notes: KNL1 (CASC5) 1441-1455 by the label; also called CASC5; source: synthetic peptide, bought: Peptide 2.0 Inc
B4: binding in the test with His-PP1γ [1] was put at a Kd of 120 ± 10 nM.

The values are drawn from PMC10698503 (Molecular Systems Biology, 2023).
